According to publication PMC3021135:

Molecular target: hAGT C145S (O6-alkylguanine-DNA alkyltransferase, inactive mutant) (human, UniProt P16455 1-207, C145S)
Test: EMSA

hAGT C145S (O6-alkylguanine-DNA alkyltransferase, inactive mutant), sequence (P16455 whole entry C145S): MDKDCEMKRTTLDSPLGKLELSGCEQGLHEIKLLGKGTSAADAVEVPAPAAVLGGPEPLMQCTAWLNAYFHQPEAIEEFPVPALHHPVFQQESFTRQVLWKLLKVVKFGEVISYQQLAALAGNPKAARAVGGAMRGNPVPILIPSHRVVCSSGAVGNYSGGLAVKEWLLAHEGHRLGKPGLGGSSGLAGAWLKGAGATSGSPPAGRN

B1: Control (non-cross-linked duplex) (dsDNA)
DNA 1: CGATGTCATCG
DNA 2: CGATGACATCG
Kd: 8.36 ± 1.11 µM
